The values that follow come from patent CN117136070A (CELLDEX THERAPEUTICS INC, dated 2023).

One assay concerns the target T1, 重组人FcrRIIb (human, UniProt P31994 43-217, limits assumed).
T1 construct: Recombinant, histidine-tagged, captured on anti-penta-His biosensor; also called FcγRIIb; not shown: histidine tag
T1 sequence (looked up): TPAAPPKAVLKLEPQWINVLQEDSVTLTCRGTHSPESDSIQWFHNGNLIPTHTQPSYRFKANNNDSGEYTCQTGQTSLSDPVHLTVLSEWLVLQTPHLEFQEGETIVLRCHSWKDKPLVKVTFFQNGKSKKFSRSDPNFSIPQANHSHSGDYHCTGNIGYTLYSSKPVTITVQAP
In words: BLI, His-tagged Fc receptor captured on anti-penta-His biosensor, antibody in solution.

The target of another assay is KIT (野生型KIT, M-07e细胞) (UniProt P10721 26-976, limits assumed). Put plainly: cell-based or functional assay.
Sequence of KIT (野生型KIT, M-07e细胞) (P10721 26-976 limits assumed): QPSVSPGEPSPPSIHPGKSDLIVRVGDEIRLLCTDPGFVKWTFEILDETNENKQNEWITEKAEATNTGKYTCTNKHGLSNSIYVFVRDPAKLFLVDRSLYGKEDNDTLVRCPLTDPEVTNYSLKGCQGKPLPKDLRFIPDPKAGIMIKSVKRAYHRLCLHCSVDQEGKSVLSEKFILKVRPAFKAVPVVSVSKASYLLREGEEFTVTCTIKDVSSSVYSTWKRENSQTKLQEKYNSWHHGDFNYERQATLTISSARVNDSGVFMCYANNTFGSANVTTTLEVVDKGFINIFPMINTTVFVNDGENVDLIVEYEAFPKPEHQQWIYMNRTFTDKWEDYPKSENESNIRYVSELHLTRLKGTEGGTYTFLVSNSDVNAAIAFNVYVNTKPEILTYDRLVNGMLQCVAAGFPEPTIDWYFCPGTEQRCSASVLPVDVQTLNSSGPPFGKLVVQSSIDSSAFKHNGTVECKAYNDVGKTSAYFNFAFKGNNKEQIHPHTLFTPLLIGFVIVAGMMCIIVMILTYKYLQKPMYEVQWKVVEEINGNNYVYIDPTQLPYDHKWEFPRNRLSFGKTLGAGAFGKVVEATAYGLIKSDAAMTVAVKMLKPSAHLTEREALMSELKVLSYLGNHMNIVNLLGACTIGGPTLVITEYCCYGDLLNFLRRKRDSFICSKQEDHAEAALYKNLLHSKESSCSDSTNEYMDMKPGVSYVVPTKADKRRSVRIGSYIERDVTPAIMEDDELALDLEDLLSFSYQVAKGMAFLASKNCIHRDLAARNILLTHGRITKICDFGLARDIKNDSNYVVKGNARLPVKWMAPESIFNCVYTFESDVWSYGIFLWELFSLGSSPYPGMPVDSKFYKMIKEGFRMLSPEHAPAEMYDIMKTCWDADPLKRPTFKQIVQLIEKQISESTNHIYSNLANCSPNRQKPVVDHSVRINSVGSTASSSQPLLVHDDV
The target in the next assay is T2, 重组人FcrRI (human, UniProt P12314 16-288, limits assumed).
T2 construct: Recombinant, histidine-tagged, captured on anti-penta-His biosensor; also called FcγRI; FcgRI; not shown: histidine tag
T2 sequence (P12314 16-288 limits assumed): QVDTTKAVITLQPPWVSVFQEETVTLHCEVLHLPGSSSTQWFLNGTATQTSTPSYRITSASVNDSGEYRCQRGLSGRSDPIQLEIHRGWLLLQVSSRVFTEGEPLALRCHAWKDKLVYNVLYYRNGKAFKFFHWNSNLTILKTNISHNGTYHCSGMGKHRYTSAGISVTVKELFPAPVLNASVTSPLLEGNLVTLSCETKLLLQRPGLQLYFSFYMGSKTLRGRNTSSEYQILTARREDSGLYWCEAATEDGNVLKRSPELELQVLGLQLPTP
Put plainly: BLI, His-tagged Fc receptor captured on anti-penta-His biosensor, antibody in solution. In general terms: BLI is a label-free optical method that tracks binding on a fibre tip over time.

Another assay concerns the target T3, 重组人FcrRIIa (human, UniProt P12318 36-218, limits assumed).
T3 construct: Recombinant, histidine-tagged, captured on anti-penta-His biosensor; also called FcγRIIa; not shown: histidine tag
T3 sequence (looked up): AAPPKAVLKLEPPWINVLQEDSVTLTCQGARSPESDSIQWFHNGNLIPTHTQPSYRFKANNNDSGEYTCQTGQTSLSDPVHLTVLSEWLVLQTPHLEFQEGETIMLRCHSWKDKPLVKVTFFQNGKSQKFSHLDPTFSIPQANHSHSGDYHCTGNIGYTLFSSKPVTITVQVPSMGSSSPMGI
Described as above.

For the next assay, the target named is T4, 重组人FcrRIIIa (human, UniProt P08637 17-208).
T4 construct: Recombinant, histidine-tagged, captured on anti-penta-His biosensor; also called FcγRIIIa; not shown: histidine tag
T4 sequence (P08637 17-208 limits assumed): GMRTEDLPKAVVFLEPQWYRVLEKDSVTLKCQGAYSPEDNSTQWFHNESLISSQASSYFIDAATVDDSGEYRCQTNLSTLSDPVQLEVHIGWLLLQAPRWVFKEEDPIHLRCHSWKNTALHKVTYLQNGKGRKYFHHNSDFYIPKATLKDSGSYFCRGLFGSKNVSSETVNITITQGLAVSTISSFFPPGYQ
Described as above.

The target of a further assay is T5, 重组人FcrRIIIb (human, UniProt O75015 17-200).
T5 construct: Recombinant, histidine-tagged, captured on anti-penta-His biosensor; also called FcγRIIIb; not shown: histidine tag
T5 sequence (O75015 17-200 limits assumed): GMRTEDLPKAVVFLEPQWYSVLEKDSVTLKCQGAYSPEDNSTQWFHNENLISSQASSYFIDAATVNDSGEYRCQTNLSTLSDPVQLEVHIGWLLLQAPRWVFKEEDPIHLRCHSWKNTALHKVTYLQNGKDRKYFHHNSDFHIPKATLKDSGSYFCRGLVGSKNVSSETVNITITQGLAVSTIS
The description is as above.

B1: mAbc (antibody)
VH: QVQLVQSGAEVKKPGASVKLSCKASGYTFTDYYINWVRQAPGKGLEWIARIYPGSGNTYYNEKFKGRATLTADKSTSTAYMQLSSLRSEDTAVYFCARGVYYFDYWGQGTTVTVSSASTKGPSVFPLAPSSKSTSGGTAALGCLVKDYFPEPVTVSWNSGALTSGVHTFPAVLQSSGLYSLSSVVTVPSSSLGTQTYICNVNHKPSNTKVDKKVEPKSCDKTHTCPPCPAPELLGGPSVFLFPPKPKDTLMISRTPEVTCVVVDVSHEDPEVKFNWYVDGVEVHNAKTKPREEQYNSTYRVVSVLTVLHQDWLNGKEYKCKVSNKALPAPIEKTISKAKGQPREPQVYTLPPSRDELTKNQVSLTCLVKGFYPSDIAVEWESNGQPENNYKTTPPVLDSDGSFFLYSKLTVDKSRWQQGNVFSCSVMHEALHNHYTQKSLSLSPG
VL: DIVMTQSPSSLSASVGDRVTITCKASQNVRTNVAWYQQKPGKAPKALIYSASYRYSGVPDRFTGSGSGTDFTLTISSLQPEDFADYFCQQYNSYPRTFGGGTKVEIKRTVAAPSVFIFPPSDEQLKSGTASVVCLLNNFYPREAKVQWKVDNALQSGNSQESVTEQDSKDSTYSLSSTLTLSKADYEKHKVYACEVTHQGLSSPVTKSFNRGEC
notes: also called 具有相同可变区序列但是未突变的(野生型)人IgG1序列的相应抗体; 具有野生型(未突变)IgG1 Fc域的相应抗体; copies: 2 + 2
Regarding B1, the binding result in the assay with 重组人FcrRIIb is recorded as “no binding”.

B2: mAb1 (antibody, human IgG1, kappa)
heavy: QVQLVQSGAEVKKPGASVKLSCKASGYTFTDYYINWVRQAPGKGLEWIARIYPGSGNTYYNEKFKGRATLTADKSTSTAYMQLSSLRSEDTAVYFCARGVYYFDYWGQGTTVTVSSASTKGPSVFPLAPSSKSTSGGTAALGCLVKDYFPEPVTVSWNSGALTSGVHTFPAVLQSSGLYSLSSVVTVPSSSLGTQTYICNVNHKPSNTKVDKKVEPKSCDKTHTCPPCPAPEAQGGPSVFLFPPKPKDTLYITREPEVTCVVVDVSHEDPEVKFNWYVDGVEVHNAKTKPREEQYNSTYRVVSVLTVLHQDWLNGKEYKCQVSNKALPAPIEKTISKAKGQPREPQVYTLPPSRDELTKNQVSLTCLVKGFYPSDIAVEWESNGQPENNYKTTPPVLDSDGSFFLYSKLTVDKSRWQQGNVFSCSVMHEALHNHYTQKSLSLSPG
light: B1 VL
notes: also called 抗-KIT抗体mAb1; Fc突变的抗-KIT抗体; copies: 2 + 2
For B2, the “SCF-依赖性M-07e细胞增殖的抑制, 平均IC50” value with KIT (野生型KIT, M-07e细胞) is 1.11 nM. The binding result in the assay with 重组人FcrRI, with 重组人FcrRIIa, in the assay with 重组人FcrRIIb, in the assay with 重组人FcrRIIIa and with 重组人FcrRIIIb was “no binding (tested: 500nM)” in each case.
